Laboratory results reported in paper doi:10.1101/169961.

Molecular target: Chicken skeletal muscle actin (chicken) (UniProt P68139)
Assay: TIRF microscopy

## tropomyosin AlaSer-Cdc8, labeled (natural protein)
  percent of Fim1 association with F-actin prevented by Cdc8 alone: 50%
